In US20230018670A1:

Biological target: mB7H3 (endogenous mouse B7H3 on B16 and B78 cells) (mouse) (UniProt Q8VE98)
Experiment: flow cytometry on B16 cells (no GD2, mouse B7H3), 1 ug antibody per million cells, GAH PE; anti-GD2 antibody as control

Sequence of mB7H3 (endogenous mouse B7H3 on B16 and B78 cells) (mouse) (Q8VE98 29-316 limits assumed): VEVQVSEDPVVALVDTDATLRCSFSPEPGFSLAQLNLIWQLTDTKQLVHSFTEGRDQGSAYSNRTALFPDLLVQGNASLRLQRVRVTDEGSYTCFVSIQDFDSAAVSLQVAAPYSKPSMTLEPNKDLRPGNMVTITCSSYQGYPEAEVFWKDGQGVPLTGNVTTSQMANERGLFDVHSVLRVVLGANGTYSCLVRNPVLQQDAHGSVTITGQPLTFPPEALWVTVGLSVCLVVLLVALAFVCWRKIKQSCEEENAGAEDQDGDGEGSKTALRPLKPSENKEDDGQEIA

MFI: 1 MFI
Substance: Invenra Dinutuximab (antibody)
